According to paper PMC9456106, “PET Probes for Preclinical Imaging of GRPR-Positive Prostate Cancer: Comparative Preclinical Study of [^68Ga]Ga-NODAGA-AMBA and [^44Sc]Sc-NODAGA-AMBA” (International Journal of Molecular Sciences, 2022):

Legend:
[1] = Octanol/water partition coefficient (logP); assay type: physicochemical; details: 1-octanol/water, triplicates
Method: For the determination of LogP value and the in-vitro serum stability, the same protocol was used as was described earlier by our research group. Briefly, for the determination of the partition coefficient (logP), 10 µL of [^68Ga]Ga-NODAGA-AMBA or [^44Sc]Sc-NODAGA-AMBA solution (approximately 5 MBq) was mixed with 500 µL of 1-octanol and 490 µL of water in a test tube. To reach equilibrium state, the mixture was firmly stirred and then centrifuged (20.000 rpm, 5 min). One-hundred microliters of the samples were pipetted into vials from each layer, and the radioactivity of the fractions was determined with a calibrated gamma counter (Perkin-Elmer Packard Cobra, Waltham, MA, USA). The measurements were performed in triplicates for both labelled compounds.

[2] = In-vitro stability in mouse plasma, Na2EDTA and oxalic acid (radio-HPLC); assay type: in vitro ADME; details: mixed with mouse plasma, oxalic acid
Method: For in-vitro stability measurements, the labelled compounds were mixed with mouse plasma, Na2EDTA, and oxalic acid. Samples were injected at different time points to the HPLC with and without a column.
After 15 and 90 min incubation time, a 50 µL sample was taken and 50 µL abs. EtOH was added to the aliquots. Then, the samples were centrifuged (20.000 rpm, 5 min), and the supernatant was removed and diluted with the eluent of HPLC. This was followed by the performance of the analytical measurements.

[3] = Ex-vivo biodistribution in healthy control mice; parameters: species or system CB17 SCID mice; details: i.v.; for accumulation in the adrenal glands / accumulation in the kidneys / accumulation in the pancreas / accumulation in the urine: 30-180 min, approx.; for radiotracer uptake in blood, liver, spleen, gastrointestinal tract and thoracic organs: each investigated time point
Method: (§1) Thirty, 60, 120, and 180 min after the intravenous injection of 11.3 ± 1.4 MBq [^68Ga]Ga-NODAGA-AMBA or [^44Sc]Sc-NODAGA-AMBA healthy control and PC-3 tumor-bearing mice were euthanized with 5% Forane, sacrificed, and tissue samples were taken from the selected organs. The weight and the radioactivities of both the tumors and normal tissues were measured with calibrated gamma counter, and the uptake was expressed as %ID/g tissue.

[4] = Pharmacokinetics (blood clearance) in healthy control mice; assay type: in vivo; details: healthy control CB17 SCID mice, i.v.
Method: (§2) For pharmacokinetic studies, healthy control CB17 SCID mice (n = 12) were injected intravenously with 10.8 ± 1.6 MBq of [^68Ga]Ga-NODAGA-AMBA or [^44Sc]Sc-NODAGA-AMBA under isoflurane anesthesia. Thereafter, approximately 30 μL blood samples were collected from the saphenous vein into a capillary tube at the following time points: 30, 60, 120, and 180 minutes. The volume of the blood was determined using a digital caliper. Blood samples were placed in a γ-counter and the radioactivity of each sample was measured. Results were expressed as a percentage of the injected activity per mL (% ID/mL). For the determination of in vivo serum stability of [^68Ga]Ga-NODAGA-AMBA and [^44Sc]Sc-NODAGA-AMBA, blood samples were taken from the mice at the previously mentioned time points (30, 60, 120, and 180 min). Firstly, the blood samples were centrifuged at 4°C, 10,000 rpm for 5 min. Thereafter, 50 μL samples were taken from the supernatant and mixed with ice-cold abs. ethanol (50 μL) and centrifuged again at 4°C, 10 000 rpm for 5 min. The supernatants were analyzed by analytical radio-HPLC. In all cases, the radio-HPLC chromatograms were compared to the original chromatograms of the radiotracers to find any metabolite forms.

[5] = In-vivo stability by analytical radio-HPLC of blood samples; parameters: species or system CB17 SCID mice; details: healthy mice, samples at 30, 60, 120, 180 min
Method: as §2

PC-3 tumors = test: Ex-vivo biodistribution of PC-3 tumor-bearing mice; assay type: in vivo, CB17 SCID mice; details: for accumulation in PC3 tumors, blocked: 15 mg/kg BBN blocking, 15 mg/kg
Method: For animal experiments, 12-week-old female CB17 SCID (n = 64) were used. For the induction of GRPR-expressing tumor model, mice were anesthetized with a dedicated small animal anesthesia device (Tec3 Isoflurane Vaporizer, Eickemeyer Veterinary Equipment, Sunbury-on-Thames, UK) applying 3% isoflurane (Forane, AbbVie), 0.4 L/min O2, and 1.4 L/min N2O, and 5 × 10^6 PC-3 tumor cells in 0.9% NaCl (100 µL) were injected subcutaneously into the left shoulder area of CB17 SCID mice. In-vivo and ex-vivo experiments were carried out 14 ± 1 days after subcutaneous injection of tumor cells at the tumor volume of approximately 86 mm^3.
as §1
For blocking experiments, PC-3 tumor-bearing mice were injected intravenously with 15 mg/kg of BBN (Sigma-Aldrich) 30 min prior to the injection of 11.3 ± 1.4 MBq [^68Ga]Ga-NODAGA-AMBA or [^44Sc]Sc-NODAGA-AMBA and in-vivo and ex-vivo organ distribution studies were performed as described above.

Structure (SMILES)	octanol/water partition coefficient (logP) [1]	RCP, in-vitro stability ([2]; 15 min)	RCP, in-vitro stability ([2]; 90 min)	accumulation in the adrenal glands [3]	accumulation in the kidneys [3]	accumulation in the pancreas [3]	accumulation in the urine [3]	radiotracer uptake in blood, liver, spleen, gastrointestinal tract and thoracic organs [3]	half-life in the blood [4]	in-vivo stability [5]	accumulation in PC3 tumors, blocked (PC-3 tumors; 60 min) [%ID/g]	accumulation in PC3 tumors (PC-3 tumors; 60 min after i.v. injection) [%ID/g]	accumulation in PC3 tumors, blocked (PC-3 tumors; 120 min) [%ID/g]	accumulation in PC3 tumors (PC-3 tumors; 120 min after i.v. injection) [%ID/g]
CSCC[C@H](NC(=O)[C@H](CC(C)C)NC(=O)[C@H](Cc1c[nH]cn1)NC(=O)CNC(=O)[C@@H](NC(=O)[C@H](C)NC(=O)[C@H](Cc1c[nH]c2ccccc12)NC(=O)[C@H](CCC(N)=O)NC(=O)c1ccc(NC(=O)CNC(=O)CCC(C(=O)O)N2CCN(CC(=O)O)CCN(CC(=O)O)CC2)cc1)C(C)C)C(N)=O (stereo partly shown) [[^44Sc]Sc-NODAGA-AMBA] [metal not drawn]	−2.81 ± 0.14	over 98%	over 98%	0.5–3 %ID/g	2–8 %ID/g	1–4 %ID/g	250–450 %ID/g	Low radiotracer uptake	less than 30 minutes	remained stable	0.79 ± 0.16	4.56 ± 0.45	0.69 ± 0.17	4.14 ± 0.47
CSCC[C@H](NC(=O)[C@H](CC(C)C)NC(=O)[C@H](Cc1c[nH]cn1)NC(=O)CNC(=O)[C@@H](NC(=O)[C@H](C)NC(=O)[C@H](Cc1c[nH]c2ccccc12)NC(=O)[C@H](CCC(N)=O)NC(=O)c1ccc(NC(=O)CNC(=O)CCC(C(=O)O)N2CCN(CC(=O)O)CCN(CC(=O)O)CC2)cc1)C(C)C)C(N)=O (stereo partly shown) [[^68Ga]Ga-NODAGA-AMBA] [metal not drawn]	−2.75 ± 0.18	approximately 92%	approximately 85%	0.5–3 %ID/g	2–8 %ID/g	1–4 %ID/g	250–450 %ID/g	Low radiotracer uptake	less than 30 minutes	remained stable	0.60 ± 0.22	3.78 ± 0.93	0.48 ± 0.14	3.29 ± 1.20
